Legend:
asthmatic patients = test: Segmental allergen (Derp1) challenge in asthmatic patients; assay type: in vivo, human
Text: Fig. 7 IRAK-M expression is elevated in asthmatic human samples after Derp1 segmental allergic challenge. a Representative H&E staining and PAS staining of lung biopsies before and after Derp1 segmental challenge, as well as BALF and brush cytospins before and after treatment stained with Giemsa (n = 4). b Cytospin slides of brushing, total BALF cells, BALF CD15 + and CD205 + cells samples were immune stained for IRAK-M. c Quantification of IRAK-M expression in total BALF cells, BALF CD15 + and CD205 + cells samples as in b using Velocity program. d Total BALF cells were immune stained for PIN1 and pS71PIN1 and quantified using Velocity program e. f RNA was extracted from BALF cellular contents and analyzed for the relative expression of Il6, Csf3, Cxcl2 and Ccl5 by qRT-PCR. The data were analyzed by a Student’s two-tailed t test and the values are reported as mean ± standard errors of the means (SEM). *- statistical significance (P < 0.05), **- significance (P < 0.01). Scale bar = 50 µm
For human subject study, non-smokers with a history of mild asthma with an FEV1 greater than 70% of predicted, using only intermittent beta-agonists for treatment, who were between the ages of 18 and 55 were recruited to undergo segmental allergen challenge via bronchoscopy. Participants were selected on the basis of both a positive methacholine PC20 < 8 mg/mL and a positive skin prick test to Dermatophagoides pternyssinus (DerP1). A positive intradermal that yielded a reaction at or below the concentration threshold of 0.1 AU/mL following the methods set forth in Parulekar et al., was also required, although only the DerP1 antigen was used.
After recoding baseline vitals, PO2, FEV1, PEFR, appropriate anesthetic medication was administered. Then, a fiberoptic bronchoscope with bronchoalveolar lavage (BAL) was performed by sequential instillation and removal of 5 aliquots of 50 mL normal saline in the lingula. Brushings and biopsies were taken after the BAL. The bronchoscope was then re-wedged on the contra lateral side (right middle lobe) in a readily identifiable sub-segment. A safety dose (100 × the minimum dose that caused reaction during the intradermal) of 5 mL of allergen in a prefilled syringe was instilled followed by 5 mL of air and the wedge was maintained for 5 minutes. Subject’s safety parameters were assessed after administration of the sub-threshold allergen dose. If the investigator determined the subject had well tolerated the safety dose, full dose of allergen (1000 × the minimum dose that caused reaction during the intradermal) in a pre-filled syringe was administered followed by 5 ml of air and the wedge was maintained for 5 min. Antigen lot to lot consistency was maintained between the participants intradermal skin test and segmental challenge. Participants were monitored for safety until 2 h after the procedure. After allergen challenge, if the subject developed systemic allergic reaction such as diffuse urticaria, angioedema, stridor, hypotension, syncope or any other serious adverse event, subject would be dropped from the study and only be followed up for safety reasons. Participants were not be allowed to leave for home until their condition was stable as assessed by the study physician.
Pre-bronchoscopy and bronchoscopy eligibility procedures were followed as detailed above prior to 2nd bronchoscopy. Specimens taken were BAL first, followed by brushings, and finally biopsies. These were taken where the segmental allergen challenge was placed (right middle lobe). Drug and post-procedure follow up and monitoring were followed as detailed above.

PIN1-IRAK-M interaction = test: Co-immunoprecipitation of PIN1 and IRAK-M; assay type: binding; details: for PIN1 interaction (CO-IP), IRAK-M constructs: HEK293 cells, after IL-33 treatment
Description: Fig. 2 IL-33 induces IRAK-M phosphorylation and binding to PIN1. a GST PIN1 pulldown assay with DC2.4 cell extracts either non-treated or treated with IL-33 (100 ng/ml) or LPS (100ng/ml) for 1 h. […] The cells were washed with fresh medium and treated with 100 ng/ml IL-33 for the indicated times prior to IRAK-M immunoprecipitation. d DC2.4 cells stably expressing IRAK-M were treated with IL-33 and at the indicated time points were subjected to CO-IP using anti-PIN1 antibody and blotted for IRAK-M. e HEK293 cells were transfected with different IRAK-M constructs expressing the N’ terminal domain (aa1-220), the middle portion of the protein (aa220-440) or the C’ terminal domain (aa 440-630), and then treated with IL-33, followed by CO-IP for PIN1. f DC2.4 cells stably expressing IRAK-M were treated with IL-33 and subjected to GST or GST-PIN1 pull-down.
Cells from one 10-cm dish were homogenized in lysis buffer containing 150 mM NaCl, 1% NP-40, 0.5% deoxycholate, 0.1% SDS, 50 mM Tris-HCl (pH 7.7), 1 mM phenylmethylsulfonyl fluoride (PMSF), 1 mM dithiothreitol, and protease inhibitors. Clarified supernatants were incubated with pre incubated immobilized beads rProtein A agarose beads (RepliGen) premixed with PIN1, GFP or IRAK-M antibody or, as a control, IgG overnight at 4 °C. The beads were washed extensively with lysis buffer before elution in SDS sample buffer.

IRAK-M = IRAK-M protein stability, cycloheximide chase; assay type: cell-based; details: for IRAK-M half-life: cycloheximide chase
Description: Fig. 4 PIN1 increases IRAK-M protein stabilization. a After IRAK-M and GFP were coexpressed in WT and PIN1 KO MEFs for 24 h, cells were split equally into 5 dishes. 24 h later cells were treated with cyclohexamide and harvested to monitor IRAK-M, GFP and PIN1 levels at the time points indicated. b Quantification of 3 independent experiments as in a. c WT MEFs stably expressing the TET on inducible short hairpin for PIN1 (shPin1) or pLKO as a control, were expressed with IRAK-M, followed by induction with Doxycycline for 18 h prior to the cyclohexamide chase. d Quantification of 3 independent experiments as in c. e BMDCs from WT or PIN1 KO mice were treated with IL-33 and the levels of IRAK-M were monitored at different time points after induction. f Quantification of 3 independent experiments as in e. g PIN1 KO MEFs were expressed with IRAK-M alone or in combination with PIN1 or its mutants W34A or K63A for 24 h, followed by the cyclohexamide chase to assay IRAK-M stability. h Quantification of 3 independent experiments as in g. i IRAK-M or its different mutants; S110A, S110E and P111A were expressed in WT MEFs, followed by the cyclohexamide chase to assay IRAK-M stability. j Quantification of 3 independent experiments as in i. k IRAK-M or its different mutants were stably expressed in DC2.4 cells, followed by the cyclohexamide chase to monitor IRAK-M stability. l Quantification of 3 independent experiments as in k. The data were analyzed by a Student’s two-tailed t test and the values are reported as mean ± standard errors of the means (SEM). *- statistical significance (P < 0.05), **- significance (P < 0.01)

B1: Derp1: segmental allergen of Dermatophagoides pteronyssinus (protein, UniProt P08176 99-320, looked up)
Peptidase 1: TNACSINGNAPAEIDLRQMRTVTPIRMQGGCGSCWAFSGVAATESAYLAYRNQSLDLAEQELVDCASQHGCHGDTIPRGIEYIQHNGVVQESYYRYVAREQSCRRPNAQRFGISNYCQIYPPNVNKIREALAQTHSAIAVIIGIKDLDAFRHYDGRTIIQRDNGYQPNYHAVNIVGYSNAQGVDYWIVRNSWDTNWGDNGYGYFAANIDLMMIEEYPYVVIL
immunological reaction (granulocyte infiltration, tissue remodeling) (asthmatic patients; asthmatic patients, segmental Derp1, n = 4): massive immunological reaction | IRAK-M expression in bronchial epithelial cells (asthmatic patients; biopsies, before and after Derp1 challenge): elevated | IRAK-M protein expression in lung brush samples (asthmatic patients; brush cytospins, after Derp1 challenge): greatly elevated | IRAK-M expression in CD15+ and CD205+ BALF cells (asthmatic patients; sorted eosinophils (CD15+) and dendritic/monocytes (CD205+), after Derp1): highly elevated | PIN1 protein expression (asthmatic patients; total BALF cytospins, Derp1): did not seem to change | pS71 PIN1 phosphorylation (asthmatic patients; total BALF cytospins, Derp1): decrease in pS71 phosphorylation | IRAK-M expression in total BALF cells (asthmatic patients; total BALF, after Derp1 challenge): highly elevated

B2: S110A: IRAK-M mutant, Ser110 substituted to Ala (protein)
chain: MAGNCGARGALSAHTLLFDLPPALLGELCAVLDSCDGALGWRGLAERLSSSWLDVRHIEKYVDQGKSGTRELLWSWAQKNKTIGDLLQVLQEMGHRRAIHLITNYGAVLAPSEKSYQEGGFPNILFKETANVTVDNVLIPEHNEKGILLKSSISFQNIIEGTRNFHKDFLIGEGEIFEVYRVEIQNLTYAVKLFKQEKKMQCKKHWKRFLSELEVLLLFHHPNILELAAYFTETEKFCLIYPYMRNGTLFDRLQCVGDTAPLPWHIRIGILIGISKAIHYLHNVQPCSVICGSISSANILLDDQFQPKLTDFAMAHFRSHLEHQSCTINMTSSSSKHLWYMPEEYIRQGKLSIKTDVYSFGIVIMEVLTGCRVVLDDPKHIQLRDLLRELMEKRGLDSCLSFLDKKVPPCPRNFSAKLFCLAGRCAATRAKLRPSMDEVLNTLESTQASLYFAEDPPTSLKSFRCPSPLFLENVPSIPVEDDESQNNNLLPSDEGLRIDRMTQKTPFECSQSEVMFLSLDKKPESKRNEEACNMPSSSCEESWFPKYIVPSQDLRPYKVNIDPSSEAPGHSCRSRPVESSCSSKFSWDEYEQYKKE
PIN1 interaction (CO-IP), IRAK-M constructs (PIN1-IRAK-M interaction): abolished the PIN1-IRAK-M interaction | decrease of IRAK-M protein stability (IRAK-M; mutant IRAK-M, WT MEFs, reproduced in DC2.4 cells): ~ 50%

B3: IRAK-M N-terminal domain: N-terminal (aa 1-220) of IRAK-M (protein, UniProt Q8K4B2 1-220, looked up, fragment)
chain: MAGRCGARGALSPQLLLFDLPPALLGELCGILDSCDGPLGWRGLAERLSNSWLDVRHIEKYVNQGKSGTRELLWSWAQKNKTIGDLLEVLQDMGHQRAIHLIINYGVSWTPSVQTHHELPFPSFPPEVKHACRENDPGPLEPANVTVDNVLVPEHNEKGTLQKTPISFQSILEGTKHFHKDFLIGEGEIFEVYRVDIRNQAYAVKLFKQEKKMQLKKHWK
PIN1 interaction (CO-IP), IRAK-M constructs (PIN1-IRAK-M interaction): mainly evident

B4: IRAK-M: Interleukin receptor associated kinase M (protein, UniProt Q8K4B2 1-609, looked up)
Interleukin-1 …: MAGRCGARGALSPQLLLFDLPPALLGELCGILDSCDGPLGWRGLAERLSNSWLDVRHIEKYVNQGKSGTRELLWSWAQKNKTIGDLLEVLQDMGHQRAIHLIINYGVSWTPSVQTHHELPFPSFPPEVKHACRENDPGPLEPANVTVDNVLVPEHNEKGTLQKTPISFQSILEGTKHFHKDFLIGEGEIFEVYRVDIRNQAYAVKLFKQEKKMQLKKHWKRFLSELEVLLLFRHPHILELAAYFTETEKLCLVYPYMSNGTLFDRLQCTNGTTPLSWHVRISVLIGIAKAIQYLHNTQPCAVICGNVSSANILLDDQLQPKLTDFAAAHFRPNLEQQSSTINMTGGGRKHLWYMPEEYIRQGRLSVKTDVYSFGIVIMEVLTGCKVVLDDPKHVQLRDLLMELMEKRGLDSCLSFLDRKIPPCPRNFSAKLFSLAGRCVATKAKLRPTMDEVLSSLESTQPSLYFAEDPPTSLKSFRCPSPLFLDNVPSIPVEDDENQNNHSVPPKEVLGTDRVTQKTPFECSQSEVTFLGLDRNRGNRGSEADCNVPSSSHEECWSPELVAPSQDLSPTVISLGSSWEVPGHSYGSKPMEKRCSSGLFCSEHEQSKKQ
PIN1 interaction (CO-IP), IRAK-M mutants (PIN1-IRAK-M interaction; stably expressing DC2.4 cells, with/without IL-33): evident only after IL-33 stimulation | IRAK-M half-life (IRAK-M; PIN1 KO MEFs): < 3 h | IRAK-M half-life (IRAK-M; WT MEFs): ~ 6 h | reduction of IRAK-M half-life (IRAK-M; inducible PIN1 knock down (KD), MEFs): more than 50%

B5: PIN1: peptidyl-prolyl cis-trans isomerase PIN1 (protein, UniProt Q9QUR7 1-165, looked up)
Peptidyl-prolyl cis-trans …: MADEEKLPPGWEKRMSRSSGRVYYFNHITNASQWERPSGGSTVGGSSKNGQGEPAKVRCSHLLVKHSQSRRPSSWRQEKITRSKEEALELINGYIQKIKSGEEDFESLASQFSDCSSAKARGDLGPFSRGQMQKPFEDASFALRTGEMSGPVFTDSGIHIILRTE
increase in IRAK-M half-life (IRAK-M; PIN1-deficient MEFs (text PIN1 KD, Fig. 4g legend PIN1 KO) co-expressing IRAK-M with PIN1 or mutant): more than 50%

Source: paper PMC5913134, “The IL-33-PIN1-IRAK-M axis is critical for type 2 immunity in IL-33-induced allergic airway inflammation” (Nature Communications, 2018)
